Reference: US20050037969A1
Ends that are not written are not given here. * marks the point of attachment. Biotin = O=C1N[C@H]2[C@H](CS[C@H]2CCCCC(=O)*)N1

Legend:
[1] = molecular target: GST-NeDLG fusion protein (PDZ domains 1-2) (Mus musculus (Mouse)) (UniProt P70175); experiment: G assay titration of biotinylated peptide on plate-bound GST-PDZ, apparent affinity from saturation fit
[2] = molecular target: GST-DLG1 fusion protein (PDZ domains 1-2) (human) (UniProt Q12959); experiment: as above
[3] = molecular target: GST-TIP-1 PDZ domain fusion protein (Homo sapiens) (UniProt O14907); experiment: G assay competition against 20 uM TAX 20-mer
[4] = molecular target: GST-WWP3 (MAGI-1) fusion protein (PDZ domains 1-2) (Homo sapiens) (UniProt Q96QZ7); experiment: G assay format, competition against labeled DNAM-1 peptide
[5] = molecular target: GST-TIP-1 PDZ domain fusion protein (Homo sapiens) (UniProt O14907); experiment: G assay competition against 20 uM CD95 20-mer
[6] = molecular target: GST-TIP-1 PDZ domain fusion protein (Homo sapiens) (UniProt O14907); experiment: competition for TIP1 binding, reference CD95
[7] = molecular target: GST-TIP-1 PDZ domain fusion protein (Homo sapiens) (UniProt O14907); experiment: G assay competition against CD95 20-mer

Biotin-KDITSDSENSNFRNEIQSLV [CD95 (Fas) C-terminal peptide AA13L, biotinylated]
Kd [1]: 54 µM
Kd [2]: 54 µM

RNEIQSLV [Fas (CD95) 8-mer competitor peptide RNEIQSLV (unlabeled)]
IC50 [3]: 500 µM

Biotin-ISGTPTSTMVHGMTSSSSVV [Clasp-2 C-terminal peptide AA2L, biotinylated]
Kd [1]: 7.5 µM
Kd [2]: 21 µM

SRRPKTRV [peptide corresponding to the C-terminal 8 amino acids of DNAM-1]
inhibitor concentration giving at least 50% inhibition [4]: 20 to 200 µM

KHFRETEV [8-mer peptide corresponding to the C-terminus of TAX]
IC50 [5]: 20 to 100 µM
fold better competition for binding to TIP1 than CD95 [6]: 1000 fold
concentration that effectively blocked binding [7]: 100 µM
